Reference: US20200317744A1 (published 2020)

T1: IL-4 receptor αγc heterodimer (IL-4Rαγc) (human, UniProt P24394 26-232; P31785 23-254, limits assumed, biotinylated at the C-terminal biotin acceptor peptide (BirA))
T1 construct: also called γc when IL-4Rα is present in solution
T1 sequence 1: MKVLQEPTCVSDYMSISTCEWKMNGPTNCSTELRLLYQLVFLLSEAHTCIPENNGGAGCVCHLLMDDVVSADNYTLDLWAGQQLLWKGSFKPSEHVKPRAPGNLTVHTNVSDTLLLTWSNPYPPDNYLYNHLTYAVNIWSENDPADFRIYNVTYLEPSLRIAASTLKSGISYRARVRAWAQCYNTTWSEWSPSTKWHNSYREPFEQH
T1 sequence 2: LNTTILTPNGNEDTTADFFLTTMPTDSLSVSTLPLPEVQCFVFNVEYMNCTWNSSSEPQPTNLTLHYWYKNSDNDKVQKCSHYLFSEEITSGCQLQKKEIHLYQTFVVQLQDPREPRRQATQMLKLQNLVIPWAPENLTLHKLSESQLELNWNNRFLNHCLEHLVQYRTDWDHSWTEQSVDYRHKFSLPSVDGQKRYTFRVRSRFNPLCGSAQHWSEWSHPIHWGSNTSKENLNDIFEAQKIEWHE

T2: human IL-4Rα (human, UniProt P24394 26-232, limits assumed, biotinylated)
T2 construct: also called IL-4Rα receptor
T2 sequence (looked up): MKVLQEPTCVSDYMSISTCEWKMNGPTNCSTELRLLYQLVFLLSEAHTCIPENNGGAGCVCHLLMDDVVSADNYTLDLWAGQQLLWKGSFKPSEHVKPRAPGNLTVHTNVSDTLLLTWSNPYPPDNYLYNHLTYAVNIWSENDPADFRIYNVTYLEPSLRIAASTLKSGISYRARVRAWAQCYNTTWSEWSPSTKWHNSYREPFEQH

B1: G2_neo2_40_1F_seq36 (designed binder)
chain: PKKKIQLLAEHALLDALMILNIVKTNSQNAEEKLEDYASNVEVILEEIARLMESGDQKDEAEKAKRMKEWMKRIKTTASEDEQEEMANRIITLLQSWIFS
B2: G2_neo2_40_1F_seq27 (designed binder)
chain: TKKKAQLLAEHALLDALMLLNLSSESNERLNRIITWLQSIIFTGTYDPDMVKEAVKLADEIEDEMRKRGIDTEDYVSNLRVILQELA
B3: G2_neo2_40_1F_seq29 (designed binder)
chain: EDYYSNLKVILEELAREMERNGLSDKAEEWRQWKKIVERIRQIRSNNSDLNEAKELLNRLITYIQSQIFEISERIRETDQEKKEESWKKWQLLLEHALLDVLMLLND
B4: G2_neo2_40_1F_seq40 (designed binder)
chain: PEKKRQLLAEHALLDALMILNIIRTNSDNTESKLEDYISNLKVILEEIARLMESLGLSDEAEKAKEAMRLADKAGSTASEEEKKEAMNRVITWAQSWIFN
B5: G1_neo2_40_1F (designed binder)
chain: STKKTQLLAEHALLDALMMLNLLPEPNEKLNRIITTMQSWIFTGKIDGDGAQELAKEVEELEQEHEKRGIDVEDYASNLKVILLELA
B6: G1_neo2_40_1F_H5 (designed binder)
chain: STKKTQLLIEHALLDALHMSRKLPEPNEKLSRIITTMQSWIFTGKIDGDGAQHLAKEVEELEQEHEKRGGEVEDEASNLKVILLELA
B7: G1_neo2_40_1F_H4 (designed binder)
chain: STKKTQLLLEHALLDALHMSRELPEPNEKLNRIITDMQSWIFTGKIDGDGAQDLAKEVEELEQEHEKRGGDVEDYASNLKVILLELA
B8: G1_neo2_40_1F_H2 (designed binder)
chain: STKKTQLLLEHALLDALHMRRNLPEPNEKLSRIITTMQSWIFTGKIDGDGAQELAKEVEELEQEHEKRGRDVEDDASNLKVILLELA
B9: G1_neo2_40_1F_H1 (designed binder)
chain: STKKTQLLIEHALLDALDMSRNLPEPNEKLSRIITTMQSWIFTGKIDGDGAQQLAKEVEELEQEHEKRGEDVEDEASNLKVILLELA
B10: G1_neo2_40_1F_H3 (designed binder)
chain: STKKTQLLIEHALLDALNMRKKLPEPNEKLSRIITDMQSWIFTGKIDGDGAQQLAKEVEELEQEHEKRGGDVEDYASNLKVILLELA
B11: G1_neo2_40_1F_M1 (designed binder)
chain: STEKTQLAAEHALRDALMLKHLLNEPNEKLARIITTMQSWQFTGKIDGDGAQELAKEVEELQQEHEVRGIDVEDYASNLKVILLHLA
B12: G1_neo2_40_1F_M2 (designed binder)
chain: STKNTQLAAEDALLDALMLRNLLNEPNEKLARIITTMQSWQFTEKIDGDGAQELAKEVEELQQEHEERGIDVEDYASNLKVILLQLA
B13: G1_neo2_40_1F_M3 (designed binder)
chain: STEKTQHAAEDALRDALMLRNLLNEPNEKLARIITTMQSWQFTEKIDGDGAQELAKEVEELQQEHEVRGIDVEDYASNLKVILLQLA
B14: G2_neo2_40_1F_seq12 (designed binder)
chain: TEKKLQLLVEHALLDALMILNLWSESNEKLNRIITTMQSWIFTGRIDPDKAEELAKLVEELREEARERGIDTEDYVSNLKVILKELS
B15: Mouse Serum Albumin (MSA) fusion to Neoleukin-2/15 (protein)
chain: GSDGGSHHHHHHGSGSENLYFQGSGEAHKSEIAHRYNDLGEQHFKGLVLIAFSQYLQKCSYDEHAKLVQEVTDFAKTCVADESAANCDKSLHTLFGDKLCAIPNLRENYGELADCCTKQEPERNECFLQHKDDNPSLPPFERPEAEAMCTSFKENPTTFMGHYLHEVARRHPYFYAPELLYYAEQYNEILTQCCAEADKESCLTPKLDGVKEKALVSSVRQRMKCSSMQKFGERAFKAWAVARLSQTFPNADFAEITKLATDLTKVNKECCHGDLLECADDRAELAKYMCENQATISSKLQTCCDKPLLKKAHCLSEVEHDTMPADLPAIAADFVEDQEVCKNYAEAKDVFLGTFLYEYSRRHPDYSVSLLLRLAKKYEATLEKCCAEANPPACYGTVLAEFQPLVEEPKNLVKTNCDLYEKLGEYGFQNAILVRYTQKAPQVSTPTLVEAARNLGRVGTKCCTLPEDQRLPCVEDYLSAILNRVCLLHEKTPVSEHVTKCCSGSLVERRPCFSALTVDETYVPKEFKAETFTFHSDICTLPEKEKQIKKQTALAELVKHKPKATAEQLKTVMDDFAQFLDTCCKAADKDTCFSTEGPNLVTRCKDALAGGGSGGSGGGSGGSGSGPKKKIQLHAEHALYDALMILNIVKTNSPPAEEKLEDYAFNFELILEEIARLFESGDQKDEAEKAKRMKEWMKRIKTTASEDEQEEMANAIITILQSWIFS
B16: Neoleukin-4 (i.e. IL4_G2_neo2_40_1F_seq36_S11_MIF) (designed binder)
chain: PKKKIQIMAEEALKDALSILNIVKTNSPPAEEQLERFAKRFERNLWGIARLFESGDQKDEAEKAKRMIEWMKRIKTTASEDEQEEMANAIITILQSWFFS
notes: also called Neo-4
B17: G2_neo2_40_1F_seq26 (designed binder)
chain: TKKKYQLLIEHALLDALMILNLWSESNEKLNRIITTMQSWIFTGTYDPDKAEELEKLAKEIEDEARERGIDTEDYMSNLRVILKELS
B18: mouse IL-2 (mIL-2) (ligand, UniProt P04351 21-169, looked up)
chain: APTSSSTSSSTAEAQQQQQQQQQQQQHLEQLLMDLQELLSRMENYRNLKLPRMLTFKFYLPKQATELKDLQCLEDELGPLRHVLDLTQSKSFQLEDAENFISNIRVTVVKLKGSDNTFECQFDDESATVVDFLRRWIAFCQSIISTSPQ
B19: G2_neo2_40_1F_seq30 (designed binder)
chain: PEKKRQLLLEHILLDALMLLNLLETNPQNTESKFEDYISNAEVIAEELAKLMESLGLSDEAEKFKKIKQWLREVWRIWSSTNWSTLEDKARELLNRIITTIQSQIFY
B20: Neoleukin-2/15 internal disulfide-stapled variant (disulfide between residues 38 and 75) (designed binder)
chain: PKKKIQLHAEHALYDALMILNIVKTNSPPAEEKLEDYCFNFELILEEIARLFESGDQKDEAEKAKRMKEWMKRICTTASEDEQEEMANAIITILQSWIFS
modifications: disulfide bond between residues 38 and 75
B21: G2_neo2_40_1F_seq16 (designed binder)
chain: TKKKIQLLVEHALLDALMILNLSSKSNEKLNRIITTMQSWIFNGTIDPDRARELAKLVEEIRDEMEKNGIDTEDYVSNLKVILEELA
B22: G2_neo2_40_1F_seq04 (designed binder)
chain: TTKKIQLLVEHALLDALMILNLSSESNEKLNRIITTLQSWIFRGEIDPDRARELAKLLEEIREEMRKRGIDTEDYVSNMIVIIRELA
B23: Neoleukin-2/15 terminal disulfide-stapled variant (CNSN and NFQC added at the termini) (designed binder)
chain: CNSNKKKIQLHAEHALYDALMILNIVKTNSPPAEEKLEDYAFNFELILEEIARLFESGDQKDEAEKAKRMKEWMKRIKTTASEDEQEEMANAIITILQSWIFNFQC
modifications: disulfide bond between the added N-terminal and C-terminal cysteines

Key:
[1] = molecular target: murine IL-2Rβ (mIL-2Rβ) (mouse) (UniProt P16297); experiment: SPR; mIL-2Rβ immobilised
[2] = molecular target: murine IL-2 receptor βγc heterodimer (mIL-2Rβγc) (mouse) (UniProt P16297); experiment: SPR; mIL-2Rγ immobilised, saturating mIL-2Rβ in solution
[3] = molecular target: human IL-2Rβ (hIL-2Rβ) (human) (UniProt P14784); experiment: SPR; hIL-2Rβ immobilised
Sequence of human IL-2Rβ (hIL-2Rβ) (human) (P14784 other isoform, or with tags, fused parts or gaps): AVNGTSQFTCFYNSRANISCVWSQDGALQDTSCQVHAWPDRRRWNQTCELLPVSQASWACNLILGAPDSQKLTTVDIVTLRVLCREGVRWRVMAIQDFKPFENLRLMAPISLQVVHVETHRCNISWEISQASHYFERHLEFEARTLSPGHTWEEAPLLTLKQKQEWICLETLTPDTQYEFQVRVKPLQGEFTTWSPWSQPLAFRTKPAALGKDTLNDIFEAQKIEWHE

[4] = molecular target: human IL-2 receptor βγc heterodimer (hIL-2Rβγc) (human) (UniProt P14784); experiment: SPR; hIL-2Rγ immobilised, saturating hIL-2Rβ in solution
Sequence of human IL-2 receptor βγc heterodimer (hIL-2Rβγc) (human) (P14784 27-240, one chain of several): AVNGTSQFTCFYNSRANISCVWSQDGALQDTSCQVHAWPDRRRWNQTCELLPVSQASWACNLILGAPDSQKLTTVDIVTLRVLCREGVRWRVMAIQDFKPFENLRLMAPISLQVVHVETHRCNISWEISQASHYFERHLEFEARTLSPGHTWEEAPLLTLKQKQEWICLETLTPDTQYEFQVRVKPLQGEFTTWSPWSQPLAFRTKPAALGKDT

[5] = molecular target: human IL-2Rβγc on YT-1 human natural killer cells (human) (UniProt P14784); experiment: cell-based or functional assay
Sequence of human IL-2Rβγc on YT-1 human natural killer cells (human) (P14784 27-551): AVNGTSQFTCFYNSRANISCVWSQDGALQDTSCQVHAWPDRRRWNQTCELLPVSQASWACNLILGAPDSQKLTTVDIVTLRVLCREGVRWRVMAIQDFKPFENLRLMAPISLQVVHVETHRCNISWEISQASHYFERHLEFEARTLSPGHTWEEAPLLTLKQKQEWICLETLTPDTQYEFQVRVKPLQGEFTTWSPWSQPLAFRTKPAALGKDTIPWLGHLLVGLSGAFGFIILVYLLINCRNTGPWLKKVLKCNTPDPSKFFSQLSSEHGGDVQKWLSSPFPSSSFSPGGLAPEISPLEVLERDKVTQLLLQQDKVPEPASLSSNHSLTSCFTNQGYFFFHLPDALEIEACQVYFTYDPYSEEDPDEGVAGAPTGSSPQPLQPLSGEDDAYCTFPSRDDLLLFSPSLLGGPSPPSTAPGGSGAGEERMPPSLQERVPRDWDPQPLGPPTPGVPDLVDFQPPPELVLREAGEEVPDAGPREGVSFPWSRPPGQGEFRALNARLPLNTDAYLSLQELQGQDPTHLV

[6] = molecular target: murine IL-2 receptor βγc heterodimer (mIL-2Rβγc) (mouse) (UniProt P16297); experiment: biolayer interferometry; biotin-mIL2Gamma on streptavidin sensor, MSA-Neo2 titrated 729 to 1 nM with saturating mIL2Beta
[7] = molecular target: T1, IL-4 receptor αγc heterodimer (IL-4Rαγc); experiment: biolayer interferometry; γc on sensor, IL-4Rα in solution
Procedure: Less than 100 response units (RU) of each ligand was immobilized to minimize mass transfer effects. […] Surface regeneration for all interactions was conducted using 15 s exposure to 1 M MgCl2 in 10 mM sodium acetate pH 5.5. SPR experiments were carried out in HBS-P+ buffer (GE Healthcare) supplemented with 0.2% bovine serum albumin (BSA) at 25° C. and all binding studies were performed at a flow rate of […] to prevent analyte rebinding. Data was visualized and processed using the Biacore T100 evaluation software version 2.0 (GE Healthcare). Equilibrium titration curve fitting and equilibrium binding dissociation (KD) value determination was implemented using GraphPad Prism assuming all binding interactions to be first order. Biolayer interferometry: binding data were collected in a Octet RED96 (ForteBio, Menlo Park, Calif.) and processed using the instrument's integrated software using a 1:1 binding model. […] Analyte proteins were diluted from concentrated stocks into binding buffer.

human IL-4Rα = molecular target: T2, human IL-4Rα; experiment: biolayer interferometry
[8] = molecular target: IL-2Rβγc (species not stated); experiment: biolayer interferometry
Sequence of IL-2Rβγc (species not stated) (P14784 whole entry, chain 1 of 2): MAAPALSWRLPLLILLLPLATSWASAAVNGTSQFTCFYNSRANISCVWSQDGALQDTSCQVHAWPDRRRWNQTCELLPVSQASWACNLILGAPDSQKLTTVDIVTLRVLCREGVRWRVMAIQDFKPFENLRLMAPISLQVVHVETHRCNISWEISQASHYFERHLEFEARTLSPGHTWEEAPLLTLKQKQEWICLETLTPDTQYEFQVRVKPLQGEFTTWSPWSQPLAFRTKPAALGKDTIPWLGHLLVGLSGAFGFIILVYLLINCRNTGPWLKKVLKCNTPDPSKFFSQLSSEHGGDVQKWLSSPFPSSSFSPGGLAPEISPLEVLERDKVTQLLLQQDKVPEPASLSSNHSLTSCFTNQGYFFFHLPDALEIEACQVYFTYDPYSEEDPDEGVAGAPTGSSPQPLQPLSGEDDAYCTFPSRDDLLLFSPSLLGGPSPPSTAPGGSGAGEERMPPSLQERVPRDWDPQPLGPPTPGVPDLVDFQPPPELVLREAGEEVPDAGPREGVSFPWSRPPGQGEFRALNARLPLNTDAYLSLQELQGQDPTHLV
Sequence of IL-2Rβγc (species not stated) (P31785 whole entry, chain 2 of 2, further chain): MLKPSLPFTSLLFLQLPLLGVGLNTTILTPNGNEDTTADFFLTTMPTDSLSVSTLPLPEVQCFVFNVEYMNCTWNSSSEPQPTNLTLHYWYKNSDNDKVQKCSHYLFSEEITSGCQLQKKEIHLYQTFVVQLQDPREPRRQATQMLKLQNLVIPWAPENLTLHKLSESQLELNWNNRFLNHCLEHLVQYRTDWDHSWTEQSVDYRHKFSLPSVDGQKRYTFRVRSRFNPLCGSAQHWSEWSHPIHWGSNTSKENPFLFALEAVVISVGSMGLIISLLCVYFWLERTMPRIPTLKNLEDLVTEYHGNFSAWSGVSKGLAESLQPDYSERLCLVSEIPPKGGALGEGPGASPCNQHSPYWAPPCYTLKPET

Molecule	Kd [1] [nM]	Kd [2] [nM]	further results
Neoleukin-2/15 (i.e. G2_neo2_40_1F_seq36_S11) (designed binder)	16.1	38.4	–
human IL-2 (hIL-2) (from UniProt P60568 21-153) (ligand)	8110	492	–
Super-2/Superkine (PDB:3QAZ) (ligand)	214	312	Kd [3]: 2 nM; Kd [4]: 301 nM; EC50 (CD25-) pSTAT5, human NK (YT, CD25-) cells [5]: 70 pM
B1	2430	568	–
B2	–	13.6	–
B3	–	38.2	–
B4	–	69.2	–
B5	486	7.9	–
B6	45300	5120	–
B7	10100	392	–
B8	68300	964	–
B9	6800	2650	–
B10	–	3830	–
B11	214	4.3	–
B12	2600	886	–
B13	402	64.8	–
B14	–	39.1	–
B15	–	–	Kd [6]: 33.5 nM
B16	–	–	binding result [7]: binds; binding result (human IL-4Rα): binds
B17	–	27.8	–
B18	1500	126	–
B19	–	925	–
B20	–	–	Kd [8]: 1.3 nM
B21	–	71.5	–
B22	–	80	–
B23	–	–	Kd [8]: 1.8 nM
